Experiment in all cases: NMR
For one series, the target named is Glu72 (UniProt position 822, QHLKKEKGLF-). The following applies: native (folded) state.
Series [1] has as its target Asp44 (UniProt position 794, ---LSDEDFKA). To be noted: native (folded) state; cited from earlier work.
The target in another series is Glu45 (UniProt position 795, --LSDEDFKAV). The following applies: native (folded) state.
A further series deals with Asp46 (UniProt position 796, -LSDEDFKAVF). To be noted: native (folded) state.
Series [2] concerns Asp44. The following applies: isolated peptide fragments, largely unstructured; cited from earlier work.
Where [3] appears, read: fully folded over the whole pH range.

For 5 substances, pKa results are on record in paper PMC8197028.

By pKa is commonly meant the pH at which an ionisable group is half protonated. On to “Villin headpiece helical subdomain HP36, wild type (not stated in the article (Gallus gallus inferred))”, for which the pKa with Glu72 (cited from earlier work) is reported as 4.37±0.03; with Asp44 [1] it was 3.04±0.12; with Glu45 (cited from earlier work), 3.95±0.02; in the series with Asp46 (cited from earlier work), 3.44±0.11.
As for “Villin headpiece helical subdomain HP36 K48M (not stated in the article (Gallus gallus inferred); K48M)”, the pKa with Glu72 (cited from earlier work) was 4.41±0.03; with Asp44 [1], 3.23±0.07; with Glu45 (cited from earlier work) it was 4.68±0.09; in the series with Asp46 (cited from earlier work) it was 3.38±0.05.
As to “HP36 peptide fragment, residues 41-53 (not stated in the article (Gallus gallus inferred))”, in the series on Asp44 [2], the pKa was 4.00.
As to “Villin headpiece helical subdomain HP36 D44N/K48M (not stated in the article (Gallus gallus inferred); D44N;K48M)”, the pKa with Glu72 (setting [3]) was found to be 4.37±0.03; with Glu45 (setting [3]) it was 4.39±0.05; with Asp46 (setting [3]) it was 3.49±0.08.
Regarding “Villin headpiece helical subdomain HP36 D44N (not stated in the article (Gallus gallus inferred); D44N)”, the pKa in the series with Glu72 (setting [3]) turned out to be 4.32±0.02; in the series with Glu45 (setting [3]) it was 3.86±0.02; in the series with Asp46 (setting [3]) it was 3.43±0.05.
